Source: patent US20190169232A1

What was measured:
[1] = molecular target: C1q purified from pooled normal human sera (human) (UniProt P02746); test: SPR kinetics, C1q immobilised on a CM5 chip, HMGB1 redox form as analyte in a concentration series, 1:1 fit
[2] = molecular target: LAIR-1 on human monocytes (human) (UniProt Q6GTX8); test: co-immunoprecipitation from human monocytes, IP anti-LAIR-1, blot anti-SHP-1; cells treated with C1q and HMGB1
[3] = molecular target: LAIR-1 on human monocytes (human) (UniProt Q6GTX8); test: co-immunoprecipitation from human monocytes, IP anti-LAIR-1, blot anti-SHP-1; cells without C1q and without HMGB1
[4] = molecular target: LAIR-1 on human monocytes (human) (UniProt Q6GTX8); test: co-immunoprecipitation from human monocytes, IP anti-LAIR-1, blot anti-SHP-1; cells treated with C1q alone
[5] = molecular target: LAIR-1 on human monocytes (human) (UniProt Q6GTX8); test: co-immunoprecipitation from human monocytes, IP anti-LAIR-1, blot anti-SHP-1; cells treated with HMGB1 alone

Sequence of LAIR-1 on human monocytes (human) (Q6GTX8 22-287): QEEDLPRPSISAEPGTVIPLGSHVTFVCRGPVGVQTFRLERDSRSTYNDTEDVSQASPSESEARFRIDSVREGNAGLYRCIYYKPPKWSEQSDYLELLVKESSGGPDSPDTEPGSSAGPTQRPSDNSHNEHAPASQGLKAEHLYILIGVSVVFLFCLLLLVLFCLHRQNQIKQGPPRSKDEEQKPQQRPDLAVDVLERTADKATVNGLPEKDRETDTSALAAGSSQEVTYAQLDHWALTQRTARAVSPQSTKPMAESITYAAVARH
Sequence of C1q purified from pooled normal human sera (human) (chain, as listed by the source, chain 1 of 3): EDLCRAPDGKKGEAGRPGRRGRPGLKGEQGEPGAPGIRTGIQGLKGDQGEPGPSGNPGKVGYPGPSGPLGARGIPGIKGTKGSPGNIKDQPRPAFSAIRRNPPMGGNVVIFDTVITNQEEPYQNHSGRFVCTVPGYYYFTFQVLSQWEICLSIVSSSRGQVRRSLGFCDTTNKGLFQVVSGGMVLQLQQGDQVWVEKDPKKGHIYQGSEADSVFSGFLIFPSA
Sequence of C1q purified from pooled normal human sera (human) (P02746 28-253, chain 2 of 3): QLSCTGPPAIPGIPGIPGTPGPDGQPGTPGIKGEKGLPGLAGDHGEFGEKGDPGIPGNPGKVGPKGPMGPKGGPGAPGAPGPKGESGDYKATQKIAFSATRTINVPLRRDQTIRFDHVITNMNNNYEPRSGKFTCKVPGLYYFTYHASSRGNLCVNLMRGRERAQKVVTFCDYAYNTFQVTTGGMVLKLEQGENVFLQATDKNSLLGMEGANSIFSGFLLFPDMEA
Sequence of C1q purified from pooled normal human sera (human) (P02747 29-245, chain 3 of 3): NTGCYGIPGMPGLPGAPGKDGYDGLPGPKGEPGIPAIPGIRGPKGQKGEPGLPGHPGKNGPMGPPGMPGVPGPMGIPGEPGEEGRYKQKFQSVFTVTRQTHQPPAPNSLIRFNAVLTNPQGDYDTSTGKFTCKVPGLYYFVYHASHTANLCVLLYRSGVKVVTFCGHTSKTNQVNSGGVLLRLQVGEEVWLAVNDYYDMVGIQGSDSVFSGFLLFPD
Sequence of Oxidized HMGB1 (ligand) (P09429 whole entry): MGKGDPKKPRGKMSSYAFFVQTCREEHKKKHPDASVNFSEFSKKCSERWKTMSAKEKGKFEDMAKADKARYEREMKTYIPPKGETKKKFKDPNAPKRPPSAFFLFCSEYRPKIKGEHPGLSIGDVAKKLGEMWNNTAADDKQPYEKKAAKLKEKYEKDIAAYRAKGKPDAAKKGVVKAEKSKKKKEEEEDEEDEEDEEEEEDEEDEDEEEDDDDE

| Substance | Kd [1] [nM] | signal intensity ratio (number under the SHP-1 blot) [2] | signal intensity ratio (number under the SHP-1 blot) [3] | signal intensity ratio (number under the SHP-1 blot) [4] | signal intensity ratio (number under the SHP-1 blot) [5] |
| --- | --- | --- | --- | --- | --- |
| Oxidized HMGB1 (ligand) | 1560 | – | – | – | – |
| SHP-1 (from UniProt P29350 1-595) | – | 4.4 | 1 | 2.6 | 0.7 |
